{
  "source": "paper doi:10.1101/2024.01.09.574827",
  "about": "“Discovery and binding mode of small molecule inhibitors of the apo form of human TDO2” (bioRxiv, 2024)",
  "target": "the molecule itself",
  "test": "crystal structure; sitting drop vapour diffusion at 293 K; truncated apo-TDO2 with 2 mM AMT, alone or after incubation with 1 mM inhibitor (Rac-1, Cpd-1, Cpd-4)",
  "data": [
    {"protein": "truncated human apo-TDO2 (aa 39-389) with a C-terminal hexa-histidine tag (enzyme, UniProt P48775 39-389, looked up, human tryptophan-2,3-dioxygenase (TDO2), P48775.1, amino acids 39-389, heme-free (apo) form; S1 Text is said to show additional amino acids introduced as a linker or during subcloning; calculated molecular mass 42940.24 Da; also called tryptophan-2,3-dioxygenase; TDO2 aa39-389-His6; source: E. coli RP523 (hemB mutant, unable to synthesize heme), anaerobic expression, purified (HisTrap, HiTrap Q, …)) GLIYGNYLHLEKVLNAQELQSETKGNKIHDEHLFIITHQAYELWFKQILWELDSVREIFQNGHVRDERNMLKVVSRMHRVSVILKLLVQQFSILETMTALDFNDFREYLSPASGFQSLQFRLLENKIGVLQNMRVPYNRRHYRDNFKGEENELLLKSEQEKTLLELVEAWLERTPGLEPHGFNFWGKLEKNITRGLEEEFIRIQAKEESEEKEEQVAEFQKQKEVLLSLFDEKRHEHLLSKGERRLSYRALQGALMIYFYREEPRFQVPFQLLTSLMDIDSLMTKWRYNHVCMVHRMLGSKAGTGGSSGYHYLRSTVSDRYKVFVDLFNLSTYLIPRHWIPKMNPTIHKFL", "values": [
      {"measurement": "stoichiometry N", "value": 4}
    ]}
  ]
}
